Results taken from US20220064316A1 (published 2022).

T1: BCMA-Fc antigen (R&D Systems) (UniProt Q02223 1-54)
T1 construct: also called BCMA fc fusion protein (R&D Systems, cat #193-BC-050); recombinant BCMA-Fc; not shown: Fc portion of the bought fusion protein
T1 sequence (looked up): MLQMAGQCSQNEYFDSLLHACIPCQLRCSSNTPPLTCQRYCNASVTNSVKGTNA

T2: human BCMA (B-cell maturation antigen) on cells (human, UniProt Q02223 1-184)
T2 sequence (looked up): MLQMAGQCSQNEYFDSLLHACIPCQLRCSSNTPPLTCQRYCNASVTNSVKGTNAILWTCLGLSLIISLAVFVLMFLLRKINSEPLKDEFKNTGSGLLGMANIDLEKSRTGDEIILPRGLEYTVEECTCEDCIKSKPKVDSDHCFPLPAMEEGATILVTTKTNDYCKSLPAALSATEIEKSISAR


Assays:
[1] = molecular target: T1, BCMA-Fc antigen (R&D Systems); experiment: flow cytometry; BCMA-Fc staining of CAR-transduced JNL cells
Procedure: Jurkat-NFAT-luciferase (JNL) cells transduced with BCMA CAR constructs were evaluated for activation in response to BCMA-expressing target cell lines. Small-scale viral supernatant samples were generated in HEK293T cells for transduction of JNL cells. On Day 3 following transduction, BCMA CAR-transduced JNL cells were incubated with target cells at an effector-to-target (E:T) ratio of 6:1. Target cell lines were: K562-BCMA (engineered to stably express BCMA), K562 (parental line), and BCMA positive multiple myeloma cell lines, NCI-H929 and RPMI 8226. JNL activation was measured using Bright-Glo substrate (Promega) on Day 4. CAR expression on transduced JNL was assessed on Day 7 with BCMA-Fc antigen and Biotin-Protein L reagent (Table 21).

[2] = molecular target: T2, human BCMA (B-cell maturation antigen) …; experiment: cell-based or functional assay

| % CAR+ (BCMA-Fc detection) [1] | JNL binding assay, ratio to K562; K562-BCMA [2] | JNL binding assay, ratio to K562; NCI-H929 [2] | JNL binding assay, ratio to K562; RPMI 8226 [2] | Proliferation CD3, ratio to no target; K562-BCMA [2] | Proliferation CD3, ratio to no target; KMS11-luc [2] | Proliferation CD3, ratio to no target; NCI-H929 [2] | Proliferation CD3, ratio to no target; RPMI 8226 [2] | Proliferation CD4, ratio to no target; K562-BCMA [2] | Proliferation CD4, ratio to no target; KMS11-luc [2] | Proliferation CD4, ratio to no target; NCI-H929 [2] | Proliferation CD4, ratio to no target; RPMI 8226 [2] | Proliferation CD8, ratio to no target; K562-BCMA [2] | Proliferation CD8, ratio to no target; KMS11-luc [2] | Proliferation CD8, ratio to no target; NCI-H929 [2] | Proliferation CD8, ratio to no target; RPMI 8226 [2] | Binder |
| --- | --- | --- | --- | --- | --- | --- | --- | --- | --- | --- | --- | --- | --- | --- | --- | --- |
| 36.9% | 2.91 ratio | 2.79 ratio | 3.49 ratio | 3.94 ratio | 3.51 ratio | 4.08 ratio | 3.73 ratio | 4.87 ratio | 3.82 ratio | 4.82 ratio | 4.24 ratio | 1.89 ratio | 2.73 ratio | 2.42 ratio | 2.51 ratio | BCMA-15 CAR (139114) (other, also called B15; PY43-48LB) EVQLVESGGGLVQPGGSLRLSCAVSGFALSNHGMSWVRRAPGKGLEWVSGIVYSGSTYYAASVKGRFTISRDNSRNTLYLQMNSLRPEDTAIYYCSAHGGESDVWGQGTTVTVSSASGGGGSGGRASGGGGSEIVLTQSPGTLSLSPGERATLSCRASQSIGSSSLAWYQQKPGQAPRLLMYGASSRASGIPDRFSGSGSGTDFTLTISRLEPEDFAVYYCQQYAGSPPFTFGQGTKVEIKTTTPAPRPPTPAPTIASQPLSLRPEACRPAAGGAVHTRGLDFACDIYIWAPLAGTCGVLLLSLVITLYCKRGRKKLLYIFKQPFMRPVQTTQEEDGCSCRFPEEEEGGCELRVKFSRSADAPAYKQGQNQLYNELNLGRREEYDVLDKRRGRDPEMGGKPRRKNPQEGLYNELQKDKMAEAYSEIGMKGERRRGKGHDGLYQGLSTATKDTYDALHMQALPPR |
| 31.8% | 2.81 ratio | 2.65 ratio | 3.31 ratio | 4.12 ratio | 3.42 ratio | 3.86 ratio | 3.93 ratio | 5.73 ratio | 3.97 ratio | 5.07 ratio | 4.84 ratio | 2.65 ratio | 2.83 ratio | 2.73 ratio | 3.03 ratio | BCMA-14 CAR (139113) (other, also called HJ64-62PB) EVQLVETGGGLVQPGGSLRLSCAVSGFALSNHGMSWVRRAPGKGLEWVSGIVYSGSTYYAASVKGRFTISRDNSRNTLYLQMNSLRPEDTAIYYCSAHGGESDVWGQGTTVTVSSASGGGGSGGRASGGGGSETTLTQSPATLSVSPGERATLSCRASQSVGSNLAWYQQKPGQGPRLLIYGASTRATGIPARFSGSGSGTEFTLTISSLQPEDFAVYYCQQYNDWLPVTFGQGTKVEIKTTTPAPRPPTPAPTIASQPLSLRPEACRPAAGGAVHTRGLDFACDIYIWAPLAGTCGVLLLSLVITLYCKRGRKKLLYIFKQPFMRPVQTTQEEDGCSCRFPEEEEGGCELRVKFSRSADAPAYKQGQNQLYNELNLGRREEYDVLDKRRGRDPEMGGKPRRKNPQEGLYNELQKDKMAEAYSEIGMKGERRRGKGHDGLYQGLSTATKDTYDALHMQALPPR |
